# Measurements reported in patent US20110142849A1 (IRM, published 2011).
# T1: cynomolgus monkey Pcsk9 with C-terminal his6 tag (cynomolgus monkey)
# T1 chain: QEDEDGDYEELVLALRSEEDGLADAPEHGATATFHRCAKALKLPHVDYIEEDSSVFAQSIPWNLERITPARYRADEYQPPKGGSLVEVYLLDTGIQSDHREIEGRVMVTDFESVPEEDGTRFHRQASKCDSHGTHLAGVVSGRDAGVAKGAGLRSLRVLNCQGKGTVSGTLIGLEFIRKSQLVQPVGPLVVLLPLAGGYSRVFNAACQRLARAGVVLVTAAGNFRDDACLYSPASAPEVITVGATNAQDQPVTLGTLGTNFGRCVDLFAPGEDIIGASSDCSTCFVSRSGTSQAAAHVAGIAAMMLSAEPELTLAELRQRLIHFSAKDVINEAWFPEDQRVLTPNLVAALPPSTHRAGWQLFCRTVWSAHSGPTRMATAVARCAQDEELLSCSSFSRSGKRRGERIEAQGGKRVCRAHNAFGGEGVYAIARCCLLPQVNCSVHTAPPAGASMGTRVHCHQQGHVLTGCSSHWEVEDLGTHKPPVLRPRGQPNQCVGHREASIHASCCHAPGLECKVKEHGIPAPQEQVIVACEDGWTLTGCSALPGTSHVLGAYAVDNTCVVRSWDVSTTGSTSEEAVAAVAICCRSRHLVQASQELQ
# B1: NVP-LFU720 (antibody, V domains shown)
# VH: EVQLQQSGAELMKPGASVKLSCTASGFNIKDMYMSWVRQRPEQGLEWIGRIDPANGHTNYDPKFQAKATITTDTSSKTAYLHLSSLTSEDTAVYYCARSYYYYAMDYWGQGTSVTVSS
# VL: QIVLTQSPAIMSASPGEKVTMTCSASSSVSYMHWYQQKPGSSPRLWIYLTFNLASGVPARFSGSGSGTSYSLSISSMEAEDAATYYCLQWSSDPPTFGSGTKLEIK
# notes: Murine anti-human Pcsk9 IgG1-kappa monoclonal antibody from a hybridoma; also called 5P20; NVP-LFU720-AX-1
# B2: NVP-LGT211 (antibody, human IgG1, V domains shown)
# VH: QVQLVQSGAEVKKPGASVKVSCKASGYTFSTMYMSWVRQAPGQGLEWMGRIDPANEHTNYAQKFQGRVTMTRDTSISTAYMELSRLTSDDTAVYYCARSYYYYAMDYWGQGTLVTVSS
# VL: QIVLTQSPATLSVSPGERATLSCRASQSVSYMHWYQQKPGQAPRLLIYGVFRRATGIPDRFSGSGSGTDFTLTIGRLEPEDFAVYYCLQWSSDPPTFGQGTKLEIKR
# notes: Silent human IgG1 kappa; also called pSR74 (Vh) + pJG10 (Vk); pSR074 + pJG10
# Experiments:
# [1] = target: T2, human LDL-R protein (human, UniProt P01130 22-788, limits assumed); assay: ELISA
# T2 construct: Labelled with europium in the TR-FRET assay; also called hLDL-R; hLDL-R-Eu (europium-labelled)
# T2 sequence (P01130 22-788 limits assumed): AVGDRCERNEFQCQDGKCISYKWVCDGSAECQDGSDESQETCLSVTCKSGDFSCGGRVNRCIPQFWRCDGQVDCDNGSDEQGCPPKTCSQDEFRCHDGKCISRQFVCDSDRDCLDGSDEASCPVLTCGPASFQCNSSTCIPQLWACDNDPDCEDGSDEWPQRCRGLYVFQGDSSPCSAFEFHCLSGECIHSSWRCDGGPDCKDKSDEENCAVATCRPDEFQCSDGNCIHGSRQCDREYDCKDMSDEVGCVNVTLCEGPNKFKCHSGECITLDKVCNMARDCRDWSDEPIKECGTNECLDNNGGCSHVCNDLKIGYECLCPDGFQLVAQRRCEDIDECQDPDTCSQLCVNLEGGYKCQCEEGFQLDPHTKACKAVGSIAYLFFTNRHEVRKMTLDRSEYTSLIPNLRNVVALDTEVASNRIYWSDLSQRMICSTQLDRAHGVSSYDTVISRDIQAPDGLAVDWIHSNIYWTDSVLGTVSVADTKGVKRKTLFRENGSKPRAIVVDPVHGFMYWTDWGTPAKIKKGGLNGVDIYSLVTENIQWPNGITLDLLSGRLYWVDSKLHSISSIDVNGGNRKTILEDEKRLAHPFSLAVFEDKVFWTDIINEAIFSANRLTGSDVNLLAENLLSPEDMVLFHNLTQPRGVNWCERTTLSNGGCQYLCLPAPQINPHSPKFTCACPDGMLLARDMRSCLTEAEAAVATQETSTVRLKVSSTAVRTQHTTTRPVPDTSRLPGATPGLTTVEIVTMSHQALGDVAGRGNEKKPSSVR
# [2] = target: T3, mouse Pcsk9 with C-terminal his6 tag (mouse, UniProt Q80W65 35-694, limits assumed); assay: ELISA
# T3 construct: also called murine PCSK9
# T3 sequence (Q80W65 other isoform, or with tags, fused parts or gaps limits assumed): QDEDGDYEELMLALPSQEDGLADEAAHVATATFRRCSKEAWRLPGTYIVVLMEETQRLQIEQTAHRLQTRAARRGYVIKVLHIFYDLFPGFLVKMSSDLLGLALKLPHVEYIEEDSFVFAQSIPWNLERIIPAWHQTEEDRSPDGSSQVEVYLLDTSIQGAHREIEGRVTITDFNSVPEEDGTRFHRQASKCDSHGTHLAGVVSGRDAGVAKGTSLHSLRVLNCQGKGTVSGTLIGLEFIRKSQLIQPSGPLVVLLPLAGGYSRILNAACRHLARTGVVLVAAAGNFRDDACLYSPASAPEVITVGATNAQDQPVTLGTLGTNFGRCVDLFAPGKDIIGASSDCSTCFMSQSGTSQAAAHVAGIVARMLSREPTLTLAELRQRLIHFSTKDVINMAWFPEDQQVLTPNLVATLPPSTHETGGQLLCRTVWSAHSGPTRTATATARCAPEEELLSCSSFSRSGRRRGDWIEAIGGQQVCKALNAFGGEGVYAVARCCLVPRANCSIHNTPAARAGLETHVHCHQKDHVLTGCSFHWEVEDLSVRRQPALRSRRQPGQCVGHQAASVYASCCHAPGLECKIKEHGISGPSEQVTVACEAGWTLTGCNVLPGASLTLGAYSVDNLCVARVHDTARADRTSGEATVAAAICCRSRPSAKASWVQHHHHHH
# [3] = target: T1, cynomolgus monkey Pcsk9 with C-terminal …; assay: ELISA on cyno Pcsk9his, antibody 0.03 to 30 ng/ml, Abs 650nm
# [4] = target: T4, recombinant human Pcsk9 (aa 31-692) with C-terminal his6 tag (human, UniProt Q8NBP7 31-692); assay: Solution Equilibrium Titration (SET), MSD read-out
# T4 construct: In the TR-FRET assay it carried a fluorophore (hPcsk9-AF); also called hPCSK9; hPcsk9
# Protocol: The binding kinetics of IgGs and Fab fragments were analyzed using a Solution Equilibrium Titration (“SET”) assay. Briefly, serial dilutions of hPCSK9 were added to 60 pM IgG or Fab and incubated overnight. A 96-well Standard Bind microtiter plate (Meso Scale Discovery) was coated with 1 μg/ml hPCSK9 and incubated overnight, washed with PBS/0.05% (w/v) Tween 20, blocked with PBS/5% (w/v) BSA, and washed again. The antibody-antigen preparation was added to the PCSK9-coated Standard Bind plate and incubated for 30 min at room temperature. After three additional washing steps, Sulfo-Tag-labeled goat-anti-human-detection antibody (R32AJ-5, Meso Scale Discovery) was added and incubated one hour at room temperature. After washing the plate three times, Read Buffer (Meso Scale Discovery) was added and electrochemiluminescence (ECL) signals were measured by a Sector Imager 6000 (Meso Scale Discovery). ECL data were processed with the excel add-in XLfit 4.3.2 (ID Business Solutions) using the fitting model applicable for antibodies described in Piehler, et al., (1997) J Immunol Methods 201:189-206.
Binder,binding result [1],binding result [2],EC50 (read off the curve) [3] [ng/mL],Kd [4] [nM]
B1,no binding,no binding,–,–
B2,–,–,~2,0.19
